Measurements as given in patent US20110064743A1.
Residue numbers refer to the chain shown, from its start. One block for each binder: values may come before it.

What was measured:
[1] = molecular target: SK-BR-3 cells (antigen not identified); experiment: saturation binding to cells by FACS, double-reciprocal plot; 'Rel. Affinity (nM)'; antigen on the cells not identified
[2] = molecular target: OVCAR-3 cells (antigen not identified); experiment: as above
[3] = molecular target: OVCAR-3 cells (antigen not identified); experiment: immunohistochemistry on OVCAR3 cells

Kd [1]: 1.1 nM
B1: 1250_I13 (antibody, V domains shown)
VH: QVQLQQWGAGLLKPSETLSLTCAVYGGSFSGYFWTWVRQLPGRGLEWIGEINHRGTSSYNPSLRSRLTISVDTSKNQFSLKLSSVTAADTAVYYCARITEAVGFTSFDYWGQGILVTVSS
VL: QSVLTQPPSMSAAPGQKVTISCSGSTSNIGSNYVSWYQQLPQRAPKLLIYDNDKRPSGIPDRFSGSKSGASATLDITGLQTGDEAYYYCGTWDSSLSRVFGGGTKLTVL

Kd [2]: 2 nM
B2: 1242_P11 (antibody, V domains shown)
VH: QVQLTQWGAGLLKPSETLSLTCAVGGGSFSGYFWTWIRQSPGRGLEWIGEINHKGKTTYNPTLKSRLSILVDTFKNQFSLKLRSVVAADTAVYYCARIVEAVGVTSFDSWGQGILVTVSS
VL: B1 VL with M10V, S31N, Y33H, R43T, D53N, D75G, S94T, S95R

Kd [1]: 1.1 nM
B3: 1253_N12 (antibody, V domains shown)
VH: QVQLQQWGAGLVKPSETLSVTCAVYGGSFSGYFWTWIRQPPGRGLEWIGEINHRGSSSYNPSLRSRLSISVDTSKNQFSLKMRSVTAADTAVYYCARITEAVGVTSFDSWGQGVLVTVSS
VL: B1 VL with M10V, S31N, N52D, D75A

Kd [2]: 1.6 nM
B4: 1226_K16 (antibody, V domains shown)
VH: B1 VH with F29L, V37I, L40P, G55R, S57T, S58T, Y59S, V71L, F104V
VL: B1 VL with M10V, T19N, S31N, Y33F, S35A, D75G, T81S, S95T

Kd [1]: 1.2 nM
B5: 1256_B2 (antibody, V domains shown)
VH: QVQLQQWGAGLLKPSETLSLTCAVYGGSFSGYFWSWIRQPPGRGLEWIGEINHRGSSTYKSSLKTRLTMSVDTSKNQFSIKLTSVTAADTAVYYCARITEAVGVTSFDSWGQGVLVTVSS
VL: B1 VL with M10V, S31N, K46R, D75G, S94N, S95N

# Samples Staining Positive [3]: > 75%
Kd [2]: 0.8 nM
B6: 1038_D5 (TCN-445) (antibody, V domains shown)
VH: QVQLVQSGAEVQKPGASMKVSCKASGYTFTDFYFHWVRQAPGQGLEWMGWINPRSGATNYAHKFRGRVTMTSDTSIKTIYMSLGWLRSGDTAVYYCARDMRRENGYNFDGTFDYWGQGTLVTVSS
VL: DIQMTQSPPSLSASVGDRVTITCQASQDIKNYLNWYQQKPGKAPKLLIYDASNLETGVPSRFSGSRSGTNFTFTINSLQPEDIATYFCQRYDAFPLTFGGGSKVEIK
